Assay results: article PMC12875140 (Nature microbiology, 2026)

B1: λ gpE major capsid protein (natural protein, phage λ, UniProt P03713 1-341, looked up)
chain: MSMYTTAQLLAANEQKFKFDPLFLRLFFRESYPFTTEKVYLSQIPGLVNMALYVSPIVSGEVIRSRGGSTSEFTPGYVKPKHEVNPQMTLRRLPDEDPQNLADPAYRRRRIIMQNMRDEELAIAQVEEMQAVSAVLKGKYTMTGEAFDPVEVDMGRSEENNITQSGGTEWSKRDKSTYDPTDDIEAYALNASGVVNIIVFDPKGWALFRSFKAVKEKLDTRRGSNSELETAVKDLGKAVSYKGMYGDVAIVVYSGQYVENGVKKNFLPDNTMVLGNTQARGLRTYGCIQDADAQREGINASARYPKNWVTTGDPAREFTMIQSAPLMLLADPDEFVSVQLA

Assays:
[1] = biological target: 6×-His-SUMO-Avs8A (E. coli ECOR07) (UniProt B7LDL1); experiment: MST
[2] = biological target: 6×-His-SUMO-Avs8A (E. coli ECOR07) (UniProt B7LDL1); experiment: mass photometry; conditions: scale: Bas21 mcp monomers per four Avs8 monomers
[3] = biological target: T1, 6×-His-SUMO-Avs8A (E. coli ECOR07, UniProt B7LDL1 1-1283); experiment: MST
T1 sequence (looked up): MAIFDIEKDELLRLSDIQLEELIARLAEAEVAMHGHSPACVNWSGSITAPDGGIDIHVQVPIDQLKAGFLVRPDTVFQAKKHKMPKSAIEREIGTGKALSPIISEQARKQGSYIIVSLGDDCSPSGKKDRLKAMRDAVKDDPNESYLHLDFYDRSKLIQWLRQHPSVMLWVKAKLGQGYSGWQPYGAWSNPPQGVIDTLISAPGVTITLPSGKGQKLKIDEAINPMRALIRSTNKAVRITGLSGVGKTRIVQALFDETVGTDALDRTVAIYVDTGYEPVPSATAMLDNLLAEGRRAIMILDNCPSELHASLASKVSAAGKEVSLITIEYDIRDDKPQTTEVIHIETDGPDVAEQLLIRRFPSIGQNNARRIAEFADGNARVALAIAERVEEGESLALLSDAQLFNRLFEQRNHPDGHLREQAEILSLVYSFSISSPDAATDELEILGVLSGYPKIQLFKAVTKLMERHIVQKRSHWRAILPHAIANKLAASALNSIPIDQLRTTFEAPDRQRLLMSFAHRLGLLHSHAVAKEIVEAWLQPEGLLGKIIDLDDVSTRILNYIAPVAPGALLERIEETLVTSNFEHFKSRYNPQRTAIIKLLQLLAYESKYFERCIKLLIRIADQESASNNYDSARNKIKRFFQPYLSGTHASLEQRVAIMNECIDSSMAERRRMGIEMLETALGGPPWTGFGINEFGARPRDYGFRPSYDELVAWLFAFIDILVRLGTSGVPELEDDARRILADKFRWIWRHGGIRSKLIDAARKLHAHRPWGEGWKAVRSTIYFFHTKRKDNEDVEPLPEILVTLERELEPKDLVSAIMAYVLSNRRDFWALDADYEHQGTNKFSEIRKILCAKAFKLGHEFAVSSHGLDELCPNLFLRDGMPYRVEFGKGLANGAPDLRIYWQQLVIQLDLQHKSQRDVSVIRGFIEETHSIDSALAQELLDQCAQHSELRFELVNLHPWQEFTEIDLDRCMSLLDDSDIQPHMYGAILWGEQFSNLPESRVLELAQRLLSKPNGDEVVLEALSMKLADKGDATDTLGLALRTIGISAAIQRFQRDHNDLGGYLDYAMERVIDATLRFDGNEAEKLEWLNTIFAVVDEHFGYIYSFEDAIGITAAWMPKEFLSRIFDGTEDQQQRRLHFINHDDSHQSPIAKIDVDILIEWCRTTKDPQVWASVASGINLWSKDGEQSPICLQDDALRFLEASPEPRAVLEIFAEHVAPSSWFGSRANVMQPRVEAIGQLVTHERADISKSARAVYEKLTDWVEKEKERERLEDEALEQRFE

| Molecule | Kd [1] [nM] | stoichiometry N [2] | Kd [3] [nM] |
| --- | --- | --- | --- |
| Bas21 major capsid protein (natural protein) | 12 | 2 |  |
| B1 |  |  | 124 |
